The target of the assay is 6xHis-tagged Mac3-V570R. As to the kind of experiment: in vitro aggregation assay (turbidity, OD320 over time). The settings on record: read at t = 60 min; purified 6xHis-tagged proteins; parent: est. 0.81; read off a plot.

Here are results for one substance from PMC11842775.

As to 6xHis-tagged Mac3 V570R, the response stood at 0.5 OD320.
